Results reported in US20130116201, “USE OF PEPTIDES AS TRANSPORTERS […] FOR THE INTERNALIZATION OF MOLECULES OF […] INTO TARGET CELLS” (UNIVERSITE JOSEPH FOURIER, published 2013).

Tests used:
ZEBRA Z7 = target: T1, ZEBRA Z7 (Epstein-Barr virus, UniProt P03206 P03206:170-195); test: EMSA; no dimerization domain; conditions: tags: N-terminal His6 (pET15b); label: biotin
T1 chain: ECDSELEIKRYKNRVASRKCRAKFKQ

ZEBRA Z5 = ZEBRA Z5 (Epstein-Barr virus, UniProt P03206 P03206:140-195); test: EMSA; no dimerization domain; conditions: tags: N-terminal His6 (pET15b); label: biotin
ZEBRA Z3 = ZEBRA Z3 (Epstein-Barr virus, UniProt P03206 P03206:1-140); test: EMSA; neither DIM nor DB domain; conditions: tags: N-terminal His6 (pET15b); label: biotin
Chain of ZEBRA Z3 (P03206 1-140, one chain of several): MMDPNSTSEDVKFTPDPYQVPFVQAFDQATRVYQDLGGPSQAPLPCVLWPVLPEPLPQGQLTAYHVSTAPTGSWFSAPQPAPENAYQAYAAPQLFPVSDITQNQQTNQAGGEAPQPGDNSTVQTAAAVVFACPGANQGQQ

ZEBRA Z2 = ZEBRA Z2 (Epstein-Barr virus, UniProt P03206 P03206:1-170); test: EMSA; neither DIM nor DB domain; conditions: tags: N-terminal His6 (pET15b); label: biotin
Chain of ZEBRA Z2 (P03206 1-170, one chain of several): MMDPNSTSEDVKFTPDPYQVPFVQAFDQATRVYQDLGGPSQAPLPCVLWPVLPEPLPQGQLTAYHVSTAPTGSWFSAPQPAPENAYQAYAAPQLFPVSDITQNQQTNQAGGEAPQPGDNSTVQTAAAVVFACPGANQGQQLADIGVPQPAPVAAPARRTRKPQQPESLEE

ZEBRA full-length (Z-FL) = ZEBRA full-length (Z-FL) (Epstein-Barr virus, UniProt P03206 P03206:1-245); test: EMSA; poly(dI-dC), 1 mM DTT, 4 C; conditions: tags: N-terminal His6 (pET15b); chain copies: 2; label: biotin
Chain of ZEBRA full-length (Z-FL) (P03206 whole entry, the tested form may be a part, one chain of several): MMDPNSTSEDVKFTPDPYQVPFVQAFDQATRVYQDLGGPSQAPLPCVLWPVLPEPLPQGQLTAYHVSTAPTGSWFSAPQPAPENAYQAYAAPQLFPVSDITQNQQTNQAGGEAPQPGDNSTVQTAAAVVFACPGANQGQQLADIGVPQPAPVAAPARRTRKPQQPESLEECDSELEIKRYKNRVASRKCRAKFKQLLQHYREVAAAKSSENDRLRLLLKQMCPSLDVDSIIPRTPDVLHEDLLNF

ZEBRA Z8 = ZEBRA Z8 (Epstein-Barr virus, UniProt P03206 P03206:195-245); test: EMSA; dimerization domain without DNA-binding domain; conditions: tags: N-terminal His6 (pET15b); label: biotin
Chain of ZEBRA Z8 (P03206 195-245, one chain of several): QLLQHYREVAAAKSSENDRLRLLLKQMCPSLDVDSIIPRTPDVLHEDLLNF

ZEBRA Z6 = ZEBRA Z6 (Epstein-Barr virus, UniProt P03206 SEQ:1-75); test: EMSA; efficiency almost equal to full-length ZEBRA; poly(dI-dC), 4 C; conditions: tags: N-terminal His6 (pET15b); chain copies: 2; label: biotin
Chain of ZEBRA Z6 (P03206 171-245): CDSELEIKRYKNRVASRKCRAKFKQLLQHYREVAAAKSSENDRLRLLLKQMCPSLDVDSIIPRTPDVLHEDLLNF

ZEBRA Z4 = ZEBRA Z4 (Epstein-Barr virus, UniProt P03206 SEQ:1-105); test: as above; conditions: tags: N-terminal His6 (pET15b); chain copies: 2; label: biotin
Chain of ZEBRA Z4 (P03206 141-245): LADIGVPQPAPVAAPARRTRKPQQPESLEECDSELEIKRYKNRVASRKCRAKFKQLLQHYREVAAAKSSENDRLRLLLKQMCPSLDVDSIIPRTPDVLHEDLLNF

Measured: binding result

B1: AP-1 probe (dsDNA)
DNA 1: AGCACTGACTCATGAAGT
DNA 2: TACTTCATGAGTCAGTGCT
binds: ZEBRA full-length (Z-FL) | ZEBRA Z6 | ZEBRA Z4
no binding: all other assays above
